# From patent publication EP1141005B1
# Experiments:
# Assay in all cases: cell-based or functional assay
# [1] = molecular target: HIF-1α (wild-type human HIF-1α expressed from pCMV4/HIF-1α) (human) (UniProt Q16665)
# GAL4/HIF 531-584 (human) = molecular target: GAL4/HIF 531-584 (human)
# GAL4/HIF 776-826 (human) = molecular target: GAL4/HIF 776-826 (human)
# GAL4/Arnt 128-774 = GAL4/Arnt 128-774 (UniProt P04386)
# GAL4/Arnt 128-603 = GAL4/Arnt 128-603 (UniProt P04386)
# [2] = molecular target: GFP-HIF-1α (in-frame fusion of green fluorescent protein with full-length HIF-1α) (Aequeora victoria; human) [GFP: P42212]
# GAL4/HIF 1-813 (human) = molecular target: GAL4/HIF 1-813 (human)
# GAL4/HIF 526-826 (human) = molecular target: GAL4/HIF 526-826 (human)
# GAL4/HIF 71-826 (human) = molecular target: GAL4/HIF 71-826 (human)
# HIF-1α (wild-type human HIF-1α expressed from pCMV4/HIF-1α) (human), sequence (Q16665 whole entry, the tested form may be a part): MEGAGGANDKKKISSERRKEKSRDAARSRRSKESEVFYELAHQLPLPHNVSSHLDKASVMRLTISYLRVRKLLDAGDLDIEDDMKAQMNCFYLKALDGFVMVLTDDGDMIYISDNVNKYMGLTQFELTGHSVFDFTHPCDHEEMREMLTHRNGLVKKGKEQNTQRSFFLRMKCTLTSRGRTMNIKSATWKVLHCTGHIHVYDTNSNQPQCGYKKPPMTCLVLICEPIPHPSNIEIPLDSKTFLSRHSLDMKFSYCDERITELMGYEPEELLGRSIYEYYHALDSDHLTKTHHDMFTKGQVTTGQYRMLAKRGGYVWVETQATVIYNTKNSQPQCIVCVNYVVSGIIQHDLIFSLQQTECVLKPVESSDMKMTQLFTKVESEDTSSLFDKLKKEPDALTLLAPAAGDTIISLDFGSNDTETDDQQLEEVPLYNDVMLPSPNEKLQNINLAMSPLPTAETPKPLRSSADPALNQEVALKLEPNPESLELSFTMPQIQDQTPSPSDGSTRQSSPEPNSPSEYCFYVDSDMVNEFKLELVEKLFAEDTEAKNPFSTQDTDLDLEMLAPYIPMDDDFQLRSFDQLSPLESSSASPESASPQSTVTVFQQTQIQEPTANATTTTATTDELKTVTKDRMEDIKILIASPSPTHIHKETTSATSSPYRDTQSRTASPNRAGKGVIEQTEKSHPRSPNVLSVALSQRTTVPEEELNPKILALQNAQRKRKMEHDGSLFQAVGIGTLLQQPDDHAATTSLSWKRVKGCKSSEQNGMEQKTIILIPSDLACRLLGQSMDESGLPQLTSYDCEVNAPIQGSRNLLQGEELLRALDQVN
substance,measurement,setting,value
TIF2 (transcriptional coactivator TIF2) (from UniProt Q15596 1-1464),"pT81/HRE-luc reporter gene activity, COS7, hypoxia over the levels at normoxia",[1],12 fold
Ref-1 (nuclear redox regulator Ref-1 expressed from pCMV5/Ref-1) (from UniProt P27695 1-318) (enzyme),"hypoxia-dependent activation of a GAL4-responsive reporter, COS7, Ref-1 coexpressed in the presence of CBP and SRC-1",GAL4/HIF 531-584 (human),12 fold
same,"hypoxia-dependent activation of a GAL4-responsive reporter, COS7, Ref-1 coexpressed in the presence of CBP and SRC-1",GAL4/HIF 776-826 (human),53 fold
HIF-1α (wild-type human HIF-1α expressed from pCMV4/HIF-1α) (from UniProt Q16665 1-826),"GAL4-responsive reporter gene activity, COS7, normoxia, against the GAL4 fusion protein alone",GAL4/Arnt 128-774,4 fold
same,"GAL4-responsive reporter gene activity, COS7, normoxia",GAL4/Arnt 128-603,5 fold
"CBP (CREB binding protein, full-length mouse CBP expressed from pRc/RSV-mCBP-HA) (from UniProt P45481 1-2441)","HRE-dependent reporter gene activity, COS7, hypoxia with CBP over the levels at normoxia",[2],15 fold
same,"HRE-dependent reporter gene activity, COS7, hypoxia, enhancement by coexpressed CBP",[2],3 fold
same,"GAL4-responsive reporter gene activity, COS7, hypoxic cells, in the presence of CBP",GAL4/HIF 531-584 (human),11 fold
same,"GAL4-responsive reporter gene activity, COS7, hypoxia, overexpression of CBP",GAL4/HIF 1-813 (human),14 fold
same,"GAL4-responsive reporter gene activity, COS7, in the presence of CBP",GAL4/HIF 776-826 (human),29 fold
same,"GAL4-responsive reporter gene activity, COS7, transient expression of CBP",GAL4/HIF 526-826 (human),7 to 9 fold
same,"luciferase activity, GAL4-responsive reporter, COS7, hypoxia with CBP against hypoxia without exogenous coactivators",GAL4/HIF 71-826 (human),30 fold
same,"pT81/HRE-luc reporter gene activity, COS7 coexpressing HIF-1α and Arnt, hypoxia, against hypoxia without exogenous coactivator",[1],2 to 3 fold
